# B1: mRNA-splicing (parent)
# chain: AGUUGCUGCUGGGAGCUCCAGCACAGUGAAAUGGACAGAAGGGCAGAGCAA
# Variants of: B1
# Test: exon inclusion enrichment index; higher = more inclusion; WT1 exon 5 minigene, HEK293
row,Variant,exon inclusion enrichment index
1,AGUUCACACAGGGAGCUCCAGCACAGUGAAAUGGACAGAAGGGCAGGGCAA [G5C C6A U7C G8A U10A A47G],0.0221
2,AGUUCACACAGGGAGCUCCAGCACAGUGAAAUGGACAGAAGGGCAGCGCAA [G5C C6A U7C G8A U10A A47C],0.232
3,AGUUCACACAGGGAGCUCCAGCACAGUGAAAUGGACAGAAGGGCAGUGCAA [G5C C6A U7C G8A U10A A47U],0.108
4,AGUUCACACAGGGAGCUCCAGCACAGUGAAAUGGACAGGCGGGCAGAGCAA [G5C C6A U7C G8A U10A A39G A40C],0.119
5,AGUUCACACAGGGAGCUCCAGCACAGUGAAAUGGACAGGGGGGCAGAGCAA [G5C C6A U7C G8A U10A A39G A40G],0.0106
6,AGUUCACACAGGGAGCUCCAGCACAGUGAAAUGGACAGGUGGGCAGAGCAA [G5C C6A U7C G8A U10A A39G A40U],0.0129
7,AGUUCACACAGGGAGCUAAAGCACAGUGAAAUGGACAGAAGGGCAGAGCAA [G5C C6A U7C G8A U10A C18A C19A],0.0025
8,AGUUCACACAGGGAGCUAUAGCACAGUGAAAUGGACAGAAGGGCAGAGCAA [G5C C6A U7C G8A U10A C18A C19U],0.00173
9,AGUUCACACAGGGAGCUAGAGCACAGUGAAAUGGACAGAAGGGCAGAGCAA [G5C C6A U7C G8A U10A C18A C19G],0.00323
10,AGUUCACACAGGGAGCUCCAGCACAGUGAAAUGGACAGAUCGGCAGAGCAA [G5C C6A U7C G8A U10A A40U G41C],0.451
11,AGUUCACACAGGGAGCUCCAGCACAGUGAAAUGGACAGAUUGGCAGAGCAA [G5C C6A U7C G8A U10A A40U G41U],0.0362
12,AGUUCACACAGGGAGCUCCAGCACAGUGAAAUGGACAGAUAGGCAGAGCAA [G5C C6A U7C G8A U10A A40U G41A],0.00421
13,AGUUCACACAGGGAGCUCCAGCACAGUGAAAUGGACAGAGGGGCAGAGCAA [G5C C6A U7C G8A U10A A40G],0.0695
14,AGUUCACACAGGGAGCUCCAGCACAGUGAAAUGGACAGACGGGCAGAGCAA [G5C C6A U7C G8A U10A A40C],0.355
15,AGUUCACACAGGGAGCUCCAGCACAGUGAAAUGGACAGAUGGGCAGAGCAA [G5C C6A U7C G8A U10A A40U],0.0713
16,AGUUCACACAGGGAGCUCCAGCACAGUGAAAUGGACAGUUGGGCAGAGCAA [G5C C6A U7C G8A U10A A39U A40U],0.036
17,AGUUCACACAGGGAGCUCCAGCACAGUGAAAUGGACAGUCGGGCAGAGCAA [G5C C6A U7C G8A U10A A39U A40C],0.195
18,AGUUCACACAGGGAGCUCCAGCACAGUGAAAUGGACAGUGGGGCAGAGCAA [G5C C6A U7C G8A U10A A39U A40G],0.0214
19,AGUUCACACAGGGAGCUCGCGCACAGUGAAAUGGACAGAAGGGCAGAGCAA [G5C C6A U7C G8A U10A C19G A20C],0.111
20,AGUUCACACAGGGAGCUCGGGCACAGUGAAAUGGACAGAAGGGCAGAGCAA [G5C C6A U7C G8A U10A C19G A20G],0.0527
21,AGUUCACACAGGGAGCUCGUGCACAGUGAAAUGGACAGAAGGGCAGAGCAA [G5C C6A U7C G8A U10A C19G A20U],0.0711
22,AGUUCACACAGGGAGACCCAGCACAGUGAAAUGGACAGAAGGGCAGAGCAA [G5C C6A U7C G8A U10A C16A U17C],0.0679
23,AGUUCACACAGGGAGAGCCAGCACAGUGAAAUGGACAGAAGGGCAGAGCAA [G5C C6A U7C G8A U10A C16A U17G],0.0171
24,AGUUCACACAGGGAGAACCAGCACAGUGAAAUGGACAGAAGGGCAGAGCAA [G5C C6A U7C G8A U10A C16A U17A],0.05
25,AGUUCACACAGGGAGCUCCAGCACAGUGAAAUGGACAGGAGGGCAGAGCAA [G5C C6A U7C G8A U10A A39G],0.0326
26,AGUUCACACAGGGAGCUCCAGCACAGUGAAAUGGACAGUAGGGCAGAGCAA [G5C C6A U7C G8A U10A A39U],0.00393

row,Variant,exon inclusion enrichment index
1,AGUUCACACAGGGAGCUCCAGCACAGUGAAAUGGACAGCAGGGCAGAGCAA [G5C C6A U7C G8A U10A A39C],0.0137
2,AGUUCACACAGGGAGCUCCAGCACAGUGAAAUGGACAGAAGGGCGGAGCAA [G5C C6A U7C G8A U10A A45G],0.276
3,AGUUCACACAGGGAGCUCCAGCACAGUGAAAUGGACAGAAGGGCUGAGCAA [G5C C6A U7C G8A U10A A45U],0.211
4,AGUUCACACAGGGAGCUCCAGCACAGUGAAAUGGACAGAAGGGCCGAGCAA [G5C C6A U7C G8A U10A A45C],0.18
5,AGUUCACACAGGGAGCUCCAGCACAGUGAAAUGGACAGAAGGGCGUAGCAA [G5C C6A U7C G8A U10A A45G G46U],0.0847
6,AGUUCACACAGGGAGCUCCAGCACAGUGAAAUGGACAGAAGGGCGCAGCAA [G5C C6A U7C G8A U10A A45G G46C],0.26
7,AGUUCACACAGGGAGCUCCAGCACAGUGAAAUGGACAGAAGGGCGAAGCAA [G5C C6A U7C G8A U10A A45G G46A],0.559
8,AGUUCACACAGGGAGUGCCAGCACAGUGAAAUGGACAGAAGGGCAGAGCAA [G5C C6A U7C G8A U10A C16U U17G],0.0279
9,AGUUCACACAGGGAGUACCAGCACAGUGAAAUGGACAGAAGGGCAGAGCAA [G5C C6A U7C G8A U10A C16U U17A],0.048
10,AGUUCACACAGGGAGUCCCAGCACAGUGAAAUGGACAGAAGGGCAGAGCAA [G5C C6A U7C G8A U10A C16U U17C],0.0203
11,AGUUCACACAGGGAGCUCGAGCACAGUGAAAUGGACAGAAGGGCAGAGCAA [G5C C6A U7C G8A U10A C19G],0.078
12,AGUUCACACAGGGAGCUCAAGCACAGUGAAAUGGACAGAAGGGCAGAGCAA [G5C C6A U7C G8A U10A C19A],0.0348
13,AGUUCACACAGGGAGCUCUAGCACAGUGAAAUGGACAGAAGGGCAGAGCAA [G5C C6A U7C G8A U10A C19U],0.0124
14,AGUUCACACAGGGAGCUCCAGAUCAGUGAAAUGGACAGAAGGGCAGAGCAA [G5C C6A U7C G8A U10A C22A A23U],0.0806
15,AGUUCACACAGGGAGCUCCAGAGCAGUGAAAUGGACAGAAGGGCAGAGCAA [G5C C6A U7C G8A U10A C22A A23G],0.124
16,AGUUCACACAGGGAGCUCCAGACCAGUGAAAUGGACAGAAGGGCAGAGCAA [G5C C6A U7C G8A U10A C22A A23C],0.364
17,AGUUCACACAGGGAGCUCCAGCACAGUGAAAUGGACUUAAGGGCAGAGCAA [G5C C6A U7C G8A U10A A37U G38U],0.0186
18,AGUUCACACAGGGAGCUCCAGCACAGUGAAAUGGACUCAAGGGCAGAGCAA [G5C C6A U7C G8A U10A A37U G38C],0.0672
19,AGUUCACACAGGGAGCUCCAGCACAGUGAAAUGGACUAAAGGGCAGAGCAA [G5C C6A U7C G8A U10A A37U G38A],0.0332
20,AGUUCACACAGGGAGGUCCAGCACAGUGAAAUGGACAGAAGGGCAGAGCAA [G5C C6A U7C G8A U10A C16G],0.043
21,AGUUCACACAGGGAGUUCCAGCACAGUGAAAUGGACAGAAGGGCAGAGCAA [G5C C6A U7C G8A U10A C16U],0.0868
22,AGUUCACACAGGGAGAUCCAGCACAGUGAAAUGGACAGAAGGGCAGAGCAA [G5C C6A U7C G8A U10A C16A],0.0973
23,AGUUCACACAGGGAGCUCCAGCACAGUGAAAUGGACAGAAGGGCCAAGCAA [G5C C6A U7C G8A U10A A45C G46A],0.0623
24,AGUUCACACAGGGAGCUCCAGCACAGUGAAAUGGACAGAAGGGCCUAGCAA [G5C C6A U7C G8A U10A A45C G46U],0.0352
25,AGUUCACACAGGGAGCUCCAGCACAGUGAAAUGGACAGAAGGGCCCAGCAA [G5C C6A U7C G8A U10A A45C G46C],0.0869

# — the RNAGym collection of RNA variant scans (doi:10.1101/gr.219683.116)
